Test results as given in patent US20240002541A1 (Johns Hopkins, published 2024).

Assays:
TRBV12 = molecular target: T1, TRBV12; assay: not stated (column 'Affinity' of Table 1)
T1 chain: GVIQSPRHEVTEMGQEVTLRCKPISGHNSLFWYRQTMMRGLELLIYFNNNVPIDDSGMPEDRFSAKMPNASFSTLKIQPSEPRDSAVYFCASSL

CD3 = molecular target: T2, CD3 (UniProt P07766 23-126); assay: not stated (column 'Affinity' of Table 1)
T2 construct: The antigen construct is not described; also called cluster of differentiation 3; CD3ε subunit

CD19 = molecular target: T3, CD19 (UniProt P15391 20-291, limits assumed); assay: not stated (column 'Affinity' of Table 1)
T3 construct: The antigen construct is not described
T3 sequence (looked up): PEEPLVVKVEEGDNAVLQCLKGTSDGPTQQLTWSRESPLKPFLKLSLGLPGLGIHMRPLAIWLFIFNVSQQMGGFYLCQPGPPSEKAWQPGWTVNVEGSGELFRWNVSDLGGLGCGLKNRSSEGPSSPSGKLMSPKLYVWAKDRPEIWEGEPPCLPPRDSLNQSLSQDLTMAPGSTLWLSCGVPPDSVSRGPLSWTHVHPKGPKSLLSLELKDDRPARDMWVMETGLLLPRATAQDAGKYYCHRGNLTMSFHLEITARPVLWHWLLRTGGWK

TRBC1 = molecular target: T4, TRBC1 (UniProt P01850 1-130, limits assumed); assay: not stated (column 'Affinity' of Table 1)
T4 construct: The antigen construct is not described; also called T cell receptor β chain constant 1; Cβ1 TCR
T4 sequence (P01850 1-130 limits assumed): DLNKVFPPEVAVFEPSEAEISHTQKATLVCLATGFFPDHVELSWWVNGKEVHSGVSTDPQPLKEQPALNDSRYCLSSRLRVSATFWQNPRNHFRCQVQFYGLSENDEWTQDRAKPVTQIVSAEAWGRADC

TRBV12-3 on Jurkat cells [1] = molecular target: T5, TRBV12-3 on Jurkat cells (human, UniProt P01733 22-115); assay: cell-based or functional assay
T5 sequence (TCR beta, looked up): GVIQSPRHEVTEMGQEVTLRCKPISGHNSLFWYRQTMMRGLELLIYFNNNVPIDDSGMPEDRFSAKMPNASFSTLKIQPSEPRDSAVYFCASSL

TRBV12-3 on Jurkat cells [2] = molecular target: T5, TRBV12-3 on Jurkat cells; assay: cell-based or functional assay; remark: listed apart in the source
TRBV5-5 = molecular target: T6, TRBV5-5 (UniProt A0A597 22-114, limits assumed); assay: not stated (column 'Affinity' of Table 1)
T6 construct: The antigen construct is not described; also called T cell receptor β chain variable 5-5
T6 sequence (TCR beta, looked up): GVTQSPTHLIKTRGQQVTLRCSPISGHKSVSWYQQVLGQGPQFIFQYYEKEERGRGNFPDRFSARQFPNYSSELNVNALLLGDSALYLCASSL

[3] = molecular target: T7, TRBV5-5 on human T cells and HPB-ALL cells (human, UniProt A0A597 22-114); assay: cell-based or functional assay
T7 sequence (TCR beta, looked up): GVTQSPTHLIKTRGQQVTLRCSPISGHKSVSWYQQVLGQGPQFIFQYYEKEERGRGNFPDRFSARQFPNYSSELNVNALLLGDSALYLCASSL

[4] = molecular target: T7, TRBV5-5 on human T cells and HPB-ALL …; assay: cell-based or functional assay; remark: listed apart in the source

T2 sequence (P07766 23-126): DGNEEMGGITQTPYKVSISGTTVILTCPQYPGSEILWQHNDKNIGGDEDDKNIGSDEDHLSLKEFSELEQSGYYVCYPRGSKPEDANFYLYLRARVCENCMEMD

B1: α-TRBV12 scFv (clone 16G8) (scFv, V domains shown)
VH: DVQLVESGGGLVQPGGSRKLSCAASGFTFSNFGMHWVRQAPDKGLEWVAYISSGSSTIYYADTLKGRFTISRDNPKNTLFLQMTSLRSEDTAMYYCARRGEGAMDYWGQGTSVTVSS
VL: ENVLTQSPAIMSASLGEKVTMSCRASSSVNYIYWYQQKSDASPKLWIYYTSNLAPGVPTRFSGSGSGNSYSLTISSMEGEDAATYYCQQFTSSPFTFGQGTKLEIK
notes: also called anti-TRBV12 scFv
Kd (TRBV12): 2.6 nM

B2: α-CD3 scFv (clone UCHT1.v9) (scFv, V domains shown)
VH: EVQLVESGGGLVQPGGSLRLSCAASGYSFTGYTMNWVRQAPGKGLEWVALINPYKGVSTYNQKFKDRFTISVDKSKNTAYLQMNSLRAEDTAVYYCARSGYYGDSDWYFDVWGQGTLVTVSS
VL: DIQMTQSPSSLSASVGDRVTITCRASQDIRNYLNWYQQKPGKAPKLLIYYTSRLESGVPSRFSGSGSGTDYTLTISSLQPEDFATYYCQQGNTLPWTFGQGTKVEIK
notes: also called anti-CD3 scFv
Kd (CD3): 4.7 nM

B3: α-CD19 scFv (clone HD37) (scFv, V domains shown)
VH: QVQLQQSGAELVRPGSSVKISCKASGYAFSSYWMNWVKQRPGQGLEWIGQIWPGDGDTNYNGKFKGKATLTADESSSTAYMQLSSLASEDSAVYFCARRETTTVGRYYYAMDYWGQGTTVTVSS
VL: DIQLTQSPASLAVSLGQRATISCKASQSVDYDGDSYLNWYQQIPGQPPKLLIYDASNLVSGIPPRFSGSGSGTDFTLNIHPVEKVDAATYHCQQSTEDPWTFGGGTKLEIK
notes: also called anti-CD19 scFv
Kd (CD19): 0.3 nM

B4: α-TRBC1 scFv (clone Jovi-1) (scFv, V domains shown)
VH: EVRLQQSGPDLIKPGASVKMSCKASGYTFTGYVMHWVKQRPGQGLEWIGFINPYNDDIQSNERFRGKATLTSDKSSTTAYMELSSLTSEDSAVYYCARGAGYNFDGAYRFFDFWGQGTTLTVSS
VL: DVVMTQSPLSLPVSLGDQASISCRSSQRLVHSNGNTYLHWYLQKPGQSPKLLIYRVSNRFPGVPDRFSGSGSGTDFTLKISRVEAEDLGIYFCSQSTHVPYTFGGGTKLEIKR
notes: also called anti-TRBC1 scFv
Kd (TRBC1): 0.4 nM

B5: anti-TRBV12 BsAb (α-V12) (bispecific antibody)
chain: ENVLTQSPAIMSASLGEKVTMSCRASSSVNYIYWYQQKSDASPKLWIYYTSNLAPGVPTRFSGSGSGNSYSLTISSMEGEDAATYYCQQFTSSPFTFGQGTKLEIKGGGGSEVQLVESGGGLVQPGGSLRLSCAASGYSFTGYTMNWVRQAPGKGLEWVALINPYKGVSTYNQKFKDRFTISVDKSKNTAYLQMNSLRAEDTAVYYCARSGYYGDSDWYFDVWGQGTLVTVSSGGGGSGGGGSGGGGSDIQMTQSPSSLSASVGDRVTITCRASQDIRNYLNWYQQKPGKAPKLLIYYTSRLESGVPSRFSGSGSGTDYTLTISSLQPEDFATYYCQQGNTLPWTFGQGTKVEIKGGGGSDVQLVESGGGLVQPGGSRKLSCAASGFTFSNFGMHWVRQAPDKGLEWVAYISSGSSTIYYADTLKGRFTISRDNPKNTLFLQMTSLRSEDTAMYYCARRGEGAMDYWGQGTSVTVSSHHHHHH
EC50 of GM-CSF release (Luminex), Jurkat WT + T cells, 17 hours (TRBV12-3 on Jurkat cells [1]): 0.0121 nM | EC50 of IFNγ release (Luminex), Jurkat WT + T cells, 17 hours (TRBV12-3 on Jurkat cells [1]): 0.0235 nM | EC50 of IL2 release (Luminex), Jurkat WT + T cells, 17 hours (TRBV12-3 on Jurkat cells [1]): 0.0205 nM | EC50 of IL5 release (Luminex), Jurkat WT + T cells, 17 hours (TRBV12-3 on Jurkat cells [1]): 0.0124 nM | EC50 of TNFα release (Luminex), Jurkat WT + T cells, 17 hours (TRBV12-3 on Jurkat cells [1]): 0.0138 nM | EC50 of the loss of Jurkat viability (luminescence), 5x10^4 Jurkat cells with 5x10^4 normal human T cells, 17 hours (TRBV12-3 on Jurkat cells [2]): 0.00078 nM

B6: α-TRBV5-5 scFv (clone TM23) (scFv, V domains shown)
VH: QVQLKESGPGLVAPSQSLSITCTVSGFSLTAYGVNWVRQPPGKGLEWLGMIWGDGNTDYNSALKSRLSISKDNSKSQVFLKMNSLQTDDTARYYCARDRVTATLYAMDYWGQGTSVTVSS
VL: DIQMTQTTSSLSASLGDRVTITCSASQGISNYLNWYQQKPDGTVKLLIYYTSSLHSGVPSRFSGSGSGTDYSLTISNLEPEDIATYYCQQYSKLPRTFGGGTKVEIK
notes: also called anti-TRBV5-5 scFv
Kd (TRBV5-5): 25.2 nM

B7: anti-TRBV5-5 BsAb (α-V5) (bispecific antibody)
chain: DIQMTQTTSSLSASLGDRVTITCSASQGISNYLNWYQQKPDGTVKLLIYYTSSLHSGVPSRFSGSGSGTDYSLTISNLEPEDIATYYCQQYSKLPRTFGGGTKVEIKGGGGSEVQLVESGGGLVQPGGSLRLSCAASGYSFTGYTMNWVRQAPGKGLEWVALINPYKGVSTYNQKFKDRFTISVDKSKNTAYLQMNSLRAEDTAVYYCARSGYYGDSDWYFDVWGQGTLVTVSSGGGGSGGGGSGGGGSDIQMTQSPSSLSASVGDRVTITCRASQDIRNYLNWYQQKPGKAPKLLIYYTSRLESGVPSRFSGSGSGTDYTLTISSLQPEDFATYYCQQGNTLPWTFGQGTKVEIKGGGGSQVQLKESGPGLVAPSQSLSITCTVSGFSLTAYGVNWVRQPPGKGLEWLGMIWGDGNTDYNSALKSRLSISKDNSKSQVFLKMNSLQTDDTARYYCARDRVTATLYAMDYWGQGTSVTVSSHHHHHH
EC50 of the loss of HPB-ALL viability (luminescence), 5x10^4 HPB-ALL cells with 5x10^4 normal human T cells, 17 hours [3]: 0.00209 nM | EC50 of GM-CSF release (Luminex), HPB-ALL WT + T cells, 17 hours [4]: 0.0423 nM | EC50 of IFNγ release (Luminex), HPB-ALL WT + T cells, 17 hours [4]: 0.0311 nM | EC50 of IL2 release (Luminex), HPB-ALL WT + T cells, 17 hours [4]: 0.0945 nM | EC50 of IL5 release (Luminex), HPB-ALL WT + T cells, 17 hours [4]: 0.0544 nM | EC50 of TNFα release (Luminex), HPB-ALL WT + T cells, 17 hours [4]: 0.166 nM
